From the supplement of paper PMC9732359
± gives the uncertainty stated by the source.

Experiment: protein stability index of a GFP-peptide fusion (yeast GPS) (PSI 1-4); higher = more stable; sorted into four equal gates, so the index is relative within each strain
Procedure, shortened: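 Mid-log yeast cultures in leucine-free medium, carrying a pooled plasmid library, were sorted into four equal gates by their GFP/Cherry fluorescence ratio. Each plasmid expressed Cherry along with GFP fused upstream of a tiled 17-residue yeast protein peptide. Plasmids recovered from each gate were PCR-amplified and Illumina-sequenced, with reads assigned to strains by barcodes. The protein stability index was obtained by summing each gate's read frequency weighted by its gate number.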

VEIVNYNVENQQYVAAG [FAS1]
protein stability index (doa10∆): 2.66 ± 0.17
protein stability index (pdr5∆): 2.67 ± 0.18

YPVLRKLYKKIAKFERS [YIL149C/MLP2]
protein stability index (doa10∆): 2.42 ± 0.079
protein stability index (pdr5∆): 1.99 ± 0.06
protein stability index (san1∆): 2.56 ± 0.071
protein stability index (ubr1∆): 2.88 ± 0.039

QLPANMVHLYSIVEECD [RPC17]
protein stability index (doa10∆): 1.99 ± 0.044
protein stability index (pdr5∆): 1.98 ± 0.045
protein stability index (san1∆): 1.86 ± 0.065
protein stability index (ubr1∆): 2.02 ± 0.04

ALSMGKSSAFVIDIGAS [ARP7]
protein stability index (doa10∆): 1.47 ± 0.043
protein stability index (pdr5∆): 1.95 ± 0.069
protein stability index (san1∆): 1.62 ± 0.092
protein stability index (ubr1∆): 2.1 ± 0.059

ELRSLSKKDFKIIDNPK [YMR129W/POM152]
protein stability index (doa10∆): 2.46 ± 0.058
protein stability index (pdr5∆): 2.6 ± 0.06
protein stability index (san1∆): 2.24 ± 0.081
protein stability index (ubr1∆): 2.93 ± 0.07

GRGRGRGRPPKARNGLD [SNF2]
protein stability index (doa10∆): 3.13 ± 0.084
protein stability index (pdr5∆): 3.17 ± 0.075
protein stability index (san1∆): 3.29 ± 0.047
protein stability index (ubr1∆): 3.33 ± 0.057

NVDRLYKLNVRSNDPQS [NUT2]
protein stability index (doa10∆): 3.22 ± 0.11
protein stability index (pdr5∆): 3.2 ± 0.084
protein stability index (san1∆): 3.27 ± 0.065
protein stability index (ubr1∆): 3.39 ± 0.089

LEIVYGYALRDVQARRQ [RPP1]
protein stability index (doa10∆): 2.43 ± 0.15
protein stability index (pdr5∆): 1.92 ± 0.11
protein stability index (san1∆): 2.36 ± 0.13
protein stability index (ubr1∆): 2.3 ± 0.26

GSFKRVKPQYDEIHIPA [BRR2]
protein stability index (doa10∆): 2.73 ± 0.1
protein stability index (pdr5∆): 3.07 ± 0.14
protein stability index (san1∆): 2.33 ± 0.096
protein stability index (ubr1∆): 2.46 ± 0.11

REFLKVDQEMLYEIILA [SKP1]
protein stability index (doa10∆): 2.81 ± 0.066
protein stability index (pdr5∆): 2.85 ± 0.065
protein stability index (san1∆): 2.86 ± 0.096
protein stability index (ubr1∆): 2.96 ± 0.051

PIKEAKIKHGSVTEIPL [YMR129W/POM152]
protein stability index (doa10∆): 2.9 ± 0.046
protein stability index (pdr5∆): 3 ± 0.046
protein stability index (san1∆): 2.6 ± 0.06
protein stability index (ubr1∆): 2.99 ± 0.05

ETVAKSKNAERKWAARA [RPS8A]
protein stability index (doa10∆): 3.184 ± 0.028
protein stability index (pdr5∆): 3.362 ± 0.027
protein stability index (san1∆): 3.196 ± 0.018
protein stability index (ubr1∆): 3.315 ± 0.021

VALTSFLGYKAGMTTIV [RPL3]
protein stability index (doa10∆): 2.96 ± 0.11
protein stability index (pdr5∆): 2.75 ± 0.077
protein stability index (san1∆): 2.69 ± 0.078
protein stability index (ubr1∆): 2.85 ± 0.094

QKIVVVRAEELNISGEF [RPL16A]
protein stability index (doa10∆): 3.64 ± 0.2
protein stability index (pdr5∆): 3.06 ± 0.21
protein stability index (san1∆): 3.17 ± 0.16
protein stability index (ubr1∆): 3.28 ± 0.19

LKLEKLNTNRTFAQEKL [SMC3]
protein stability index (doa10∆): 2.84 ± 0.07
protein stability index (pdr5∆): 3.08 ± 0.069
protein stability index (san1∆): 2.83 ± 0.098
protein stability index (ubr1∆): 2.93 ± 0.057

SNLSQNVVPYHRNTSDY [SWI1]
protein stability index (doa10∆): 2.65 ± 0.083
protein stability index (pdr5∆): 3.07 ± 0.086
protein stability index (san1∆): 2.82 ± 0.1
protein stability index (ubr1∆): 2.92 ± 0.058

TSCLQNNNQKIDDNYIV [SRB8]
protein stability index (doa10∆): 3.15 ± 0.072
protein stability index (pdr5∆): 3.1 ± 0.081
protein stability index (san1∆): 3.33 ± 0.11
protein stability index (ubr1∆): 3.05 ± 0.062

TTPYMTKYERARILGTR [RPO26]
protein stability index (doa10∆): 2.97 ± 0.14
protein stability index (pdr5∆): 3.3 ± 0.091
protein stability index (san1∆): 2.56 ± 0.18
protein stability index (ubr1∆): 3.45 ± 0.09

SISSVVSEDLLDERGHE [RPN4]
protein stability index (doa10∆): 3.11 ± 0.1
protein stability index (pdr5∆): 2.99 ± 0.096
protein stability index (san1∆): 2.85 ± 0.056
protein stability index (ubr1∆): 2.79 ± 0.057

ASKYNCDKSVCRKCYAR [RPL40A]
protein stability index (doa10∆): 2.81 ± 0.056
protein stability index (pdr5∆): 2.9 ± 0.058
protein stability index (san1∆): 2.87 ± 0.046
protein stability index (ubr1∆): 2.73 ± 0.053

TFVPTNSDKPRDVYVFD [DIS3]
protein stability index (doa10∆): 3 ± 0.062
protein stability index (pdr5∆): 2.93 ± 0.071
protein stability index (san1∆): 3.11 ± 0.064
protein stability index (ubr1∆): 3 ± 0.059

KGRFAVHRITDEEASYK [RPS4A]
protein stability index (doa10∆): 3.13 ± 0.075
protein stability index (pdr5∆): 3.2 ± 0.091
protein stability index (san1∆): 3.35 ± 0.061
protein stability index (ubr1∆): 3.33 ± 0.07

QTFEAKLHFKDTKPFLN [NUT1]
protein stability index (doa10∆): 2.4 ± 0.074
protein stability index (pdr5∆): 2.87 ± 0.12
protein stability index (san1∆): 2.62 ± 0.059
protein stability index (ubr1∆): 2.67 ± 0.043

IAEIKKTPLLKQYLSAS [RPL6A]
protein stability index (doa10∆): 2.65 ± 0.063
protein stability index (pdr5∆): 2.47 ± 0.065
protein stability index (san1∆): 2.31 ± 0.065
protein stability index (ubr1∆): 2.25 ± 0.047

FAADGDALVKRFKNSVK [PRE7]
protein stability index (doa10∆): 2.64 ± 0.28

QNTIDDTEMKMKSLLTE [YIL149C/MLP2]
protein stability index (doa10∆): 3.25 ± 0.066
protein stability index (pdr5∆): 3.39 ± 0.054
protein stability index (san1∆): 3.17 ± 0.067
protein stability index (ubr1∆): 3.19 ± 0.05

GPLAEEPIYGVQYKLLS [SNU114]
protein stability index (doa10∆): 2.9 ± 0.11
protein stability index (pdr5∆): 2.6 ± 0.12
protein stability index (san1∆): 2.74 ± 0.08
protein stability index (ubr1∆): 3.17 ± 0.13

EKKPASKAPAEKKPAAK [HTB1]
protein stability index (doa10∆): 3.13 ± 0.08
protein stability index (pdr5∆): 3.19 ± 0.063
protein stability index (san1∆): 3 ± 0.059
protein stability index (ubr1∆): 3.11 ± 0.054

SCRNPEHTDVIDELIDT [YIL149C/MLP2]
protein stability index (doa10∆): 2.68 ± 0.054
protein stability index (pdr5∆): 2.76 ± 0.061
protein stability index (san1∆): 2.58 ± 0.047
protein stability index (ubr1∆): 2.58 ± 0.035

DELLSQLDLCKLYFQLF [SRP68]
protein stability index (doa10∆): 1.56 ± 0.1
protein stability index (pdr5∆): 1.67 ± 0.11
protein stability index (san1∆): 1.46 ± 0.15
protein stability index (ubr1∆): 1.72 ± 0.057

QKSTELLIRKLPFQRLV [HHT1]
protein stability index (doa10∆): 1.26 ± 0.14
protein stability index (pdr5∆): 1.12 ± 0.17
protein stability index (san1∆): 1.17 ± 0.21
protein stability index (ubr1∆): 1.3 ± 0.16

YAKSEFDNVASVFMPLI [ECM29]
protein stability index (doa10∆): 3.04 ± 0.054
protein stability index (pdr5∆): 2.8 ± 0.049
protein stability index (san1∆): 3.08 ± 0.039
protein stability index (ubr1∆): 3.09 ± 0.046

EDKRKVRSAEYYAKKRA [RPL16B]
protein stability index (doa10∆): 3.31 ± 0.1
protein stability index (pdr5∆): 3.38 ± 0.089
protein stability index (san1∆): 3.36 ± 0.071
protein stability index (ubr1∆): 3.46 ± 0.055

LPEIAKEIYTTLGNQML [YJR042W/NUP85]
protein stability index (doa10∆): 2.28 ± 0.086
protein stability index (pdr5∆): 2.42 ± 0.087
protein stability index (san1∆): 2.87 ± 0.093
protein stability index (ubr1∆): 2.49 ± 0.069

NIKHKHTSIRETLENGE [SMC2]
protein stability index (doa10∆): 1.46 ± 0.12
protein stability index (pdr5∆): 1.74 ± 0.21
protein stability index (san1∆): 1.54 ± 0.2
protein stability index (ubr1∆): 1.68 ± 0.24

NSKVDMKYDIFAKFIHH [IRR1]
protein stability index (doa10∆): 2.39 ± 0.083
protein stability index (pdr5∆): 2.15 ± 0.077
protein stability index (san1∆): 2.31 ± 0.071
protein stability index (ubr1∆): 2.47 ± 0.054

GRPRGRPKKVKLEGSEN [SNF2]
protein stability index (doa10∆): 3.41 ± 0.19
protein stability index (pdr5∆): 3.21 ± 0.21
protein stability index (san1∆): 3.27 ± 0.098
protein stability index (ubr1∆): 3.65 ± 0.17

DAEVAQFLEQGLSIHPT [SRP68]
protein stability index (doa10∆): 2.79 ± 0.057
protein stability index (pdr5∆): 3 ± 0.063
protein stability index (san1∆): 2.76 ± 0.073
protein stability index (ubr1∆): 3.1 ± 0.042

RKKTEAVARLKSMNKSA [SNF2]
protein stability index (doa10∆): 1.68 ± 0.074
protein stability index (pdr5∆): 2.17 ± 0.085
protein stability index (san1∆): 2.23 ± 0.1
protein stability index (ubr1∆): 2.08 ± 0.065
